Columns and labels:
Assay type in all cases: in vivo
[1] = test system: soybean; experiment: Field trial: Feruloyl Esterase soybean seed treatment, yield; details: 1 fl oz/unit on soybean seed; 5 sites
Source text: 1 fl oz/unit of Feruloyl Esterase (SEQ ID NO:91) was coated onto soybean seeds treated with Fludioxinil fungicide, metalaxyl fungicide, thiamethoxam […], Seedwork 1037L polymer, and Sensient Red (colorant). A control treatment without esterase enzyme was also created. The seed treated with esterase and control seed was planted in replicated trials distributed across 5 replicated plots with 4 replicates of 30 ft2 each at each site.

[2] = test system: corn; experiment: Field trial: PytH Esterase corn seed treatment, yield; details: 0.5 fl oz/unit on hybrid corn seed; 10 sites
Source text: 0.5 fl oz/unit of PythH Esterase from recombinant Bacillus subtilis fermentation (SEQ ID NO:255) was coated onto Hybrid corn seeds treated with Fludioxinil fungicide, ipconazole fungicide, peridium 1006 polymer, and Sensient Red (colorant). A control treatment without esterase enzyme was also created. The seed treated with esterase and control seed was planted in replicated trials distributed across 10 replicated plots with 4 replicates of 100 ft2 each at each site.

[3] = test system: soybean; experiment: Field trial: Geobacillus stearothermophilus esterase soybean seed treatment, yield; details: 0.5 fl oz/unit on soybean seed; 6 sites
Source text: 0.5 fl oz/unit of Esterase (carboxylesterase) from Geobacillus/Bacillus stearothermophilus (SEQ ID NO:252) was coated onto soybean seeds treated with Evergol Energy (prothioconazole, metalaxyl, and penflufen fungicides) at 1 fl oz/cwt, Alias 4F (imidacloprid, insecticide) at 1.25 fl oz/unit, Sensient Red (colorant) at 0.5 fl oz/cwt, and Seedwork 4037L polymer at 1.5 fl oz/cwt. A control treatment without esterase enzyme was also created. The seed treated with esterase and control seed was planted in replicated trials distributed across 6 replicated plots with 4 replicates of 60 ft2 each at each site.

[4] = test system: corn; experiment: Greenhouse trial: Rhizopus oryzae Esterase corn seed treatment, plant height; details: 0.5 fl oz/unit seed treatment, 6049 V2 hybrid corn, plant height day 10, water control = 100%
Experimental: Rhizopus oryzae Esterase (carboxylesterase, SEQ ID NO:253) was coated onto 6049 V2 hybrid corn seeds. A water only control treatment without esterase enzyme was also created. The seed treated with esterase and control seed was planted in replicated greenhouse trials on promix soil with a fluctuating day/night temperature of 78° F./75° F., and 13 hours of light daily. Plant heights were measured on day 10 for each plant emerged from the soil.

[5] = test system: Fall armyworm (Spodoptera frugiperda); experiment: Diet-surface overlay (DSO) bioassay on Fall armyworm; details: number of individuals, n = 32, 7 days
Experimental: Diet-surface overlay bioassays are conducted with artificial diet mixes without antibiotics in 1.5 cm^2 cell bioassay trays(s). Artificial diets are commercially available from Southland Products Inc. Diets were prepared by dispersing 0.5 mL of molten diet to each 1.5 cm^2 cell. After solidification, 0.1 mL enzyme treatments were dispersed on top of diet in each cell and the tray was gently rocked in an orbital shaker to spread the liquid uniformly over the diet surface. Trays were placed under clean airflow until the surface of each cell was uniformly dried. One or two 16-cell sections were used per treatment (the number in larvae treated was 16 or 32).
One healthy first instar larva was placed into each treatment cell, each 16-cell section was covered with a re-sealable lid and incubated at 27° C. and light-dark period of 16:8 hrs. After 7 days, and according to the species, the number of individuals in the following developmental categories was recorded.
Negative/untreated controls were treated with filtered water and positive controls were treated with lethal doses of Bacillus thuringiensis subsp. Kurstaki (Btk) spores at 1000 ppm.

[6] = test system: Garden snails (Cornu aspersum); experiment: Antifeedant and molluscicide bioassay on garden snails (diet consumption, survival, weight gain)
Experimental: Two-week old garden snails (Cornu aspersum) and full-size black gloss snails (Zonitoides nitidus) were maintained in a semi-darkened tank at 68-70° F. at high humidity, provided with a wet sponge in a petri dish. Snails were transferred to fresh tank every 2-3 days, and they were feed ad libitum with cucumber slices supplemented with calcium carbonate tablets. Individuals were reared in the laboratory for at least a week to fully acclimate to laboratory conditions prior to testing. The individuals ranged between 3 weeks to 2 months old at the time of bioassay.
Filter-sterilized recombinant enzymes including proteases and lipases were prepared as indicated in Example 25. Corresponding controls (e.g., buffer, fermentation of non-recombinant strain, water) were be prepared accordingly. Enzymes were dried by mixing them with Polyvinylpyrrolidone K30 (Thermo Sci Chem, Cat #227545000) at a ratio of 60 mg PVP per mL of enzymes, dispersed on a petri dish and allowed to dry in a bio-safety hood for 24-48 hours.
The treatments were prepared by mixing 0.4 g of dry enzyme and 1 gram of artificial diet mix. The artificial diet mix consisted of flour supplemented with 30 mg sucrose per gram of flour. […]
12 snails were randomly assigned to each treatment, labeled with permanent marker on the top of the shell for identification, and their weight (mg) was recorded before treatment. […] At the time of treatment replacement, treatment consumption, weight, and mortality were recorded.
Acid protease, alkaline protease, aminopeptidase, neutral protease, and keratinase, were prepared as indicated above and their antifeedant and molluscicidal effects were tested. […] The units (U) of enzyme activity was determined as the amount of enzyme required to breakdown 1 μM of substrate per minute. […]
Lipases from Burkholderia cepacia, Pseudomonas fluorescens, porcine pancreas, type II (PPII) were prepared as described above and their antifeedant and molluscicidal effects were tested. […] The units (U) of enzyme activity was determined as the amount of enzyme required to breakdown 1 μM of substrate per minute. […]

B1: Feruloyl Esterase (SEQ ID NO:91): Beauveria bassiana Feruloyl Esterase A2 (protein, listed as Beauveria bassiana)
chain: MLSLLGFLGFAALAAAAPVRDQAFIPRTLVNRSIYDKLALYAGYTQLSNTGICARPSVPGVLYQFVESKDTDTQVSIWKVDAYKEFVIAIPGTSSARDNETNFDFALVPYQADNVRCPSCRVHKGYQAAWRSVMKQVQGNLTNLLGIHPDYTVTLTGHSLGGGLVSIAFPTLRNGPYNVTQAYTYGQPRAGNGAFANYVDGISGASDKEAGIFYRVTHANDLIPKLPPGIFGYKHSRTEYWESKPSMDNAASTYRCYGQEPADCNRNATGIDSKVHVTYAGMNVTCNKS
modifications: Feruloyl Esterase A2
yield vs base seed treatment package (in words) [1]: increased the yield

B2: PytH esterase (SEQ ID NO:255): Sphingobium wenxiniae (PytH) Esterase from recombinant Bacillus subtilis fermentation (protein, listed as Sphingobium wenxiniae)
chain: MTVTDIILIHGALNRGACYDAVVPLLEARGYRVHAPDLTGHTPGDGGHLSVVDMEHYTRPVADILARAEGQSILLGHSLGGASISWLAQHHPDKVAGLIYLTAVLTAPGITPETFVLPGEPNRGTPHALDLIQPVDEGRGLQADFSRLERLREVFMGDYPGEGMPPAEQFIQTQSTVPFGTPNPMEGRALEIPRLYIEALDDVVIPIAVQRQMQKEFPGPVAVVSLPASHAPYYSMPERLAEAIADFADAPAEYRQTATKAGPDRPAGADGGRADRADLP
yield vs base seed treatment package (in words) [2]: increased the yield

B3: Geobacillus stearothermophilus esterase (SEQ ID NO:252): Esterase (carboxylesterase) from Geobacillus/Bacillus stearothermophilus (protein, listed as Bacillus stearothermophilus, listed as Geobacillus stearothermophilus)
chain: MKIVPPKPFFFEAGERAVLLLHGFTGNSADVRMLGRFLESKGYTCHAPIYKGHGVPPEELVHTGPDDWWQDVMNGYEFLKNKGYEKIAVAGLSLGGVFSLKLGYTVPIEGIVTMCAPMYIKSEETMYEGVLEYAREYKKREGKSEEQIEQEMEKFKQTPMKTLKALQELIADVRDHLDLIYAPTFVVQARHDEMINPDSANIIYNEIESPVKQIKWYEQSGHVITLDQEKDQLHEDIYAFLESLDW
yield vs base seed treatment package (in words) [3]: increased the yield

B4: Esterase from Rhizopus oryzae: Rhizopus oryzae Esterase (carboxylesterase, SEQ ID NO:253) (protein, listed as Rhizopus oryzae)
chain: SDGGKVVAATTAQIQEFTKYAGIAATAYCRSVVPGNKWDCVQCQKWVPDGKIITTFTSLLSDTNGYVLRSDKQKTIYLVFRGTNSFRSAITDIVFNFSDYKPVKGAKVHAGFLSSYEQVVNDYFPVVQEQLTANPTYKVIVTGHSLGGAQALLAGMDLYQREPRLSPKNLSIFTVGGPRVGNPTFAYYVESTGIPFQRTAHKRDIVPHVPPQSFGFLHPGVESWIKSGTSNVQICTSEIETKDCSNSIVPFTSILDHLSYFDINEGSCL
modifications: Rhizopus cf. oryzae
Height as % of Control [4]: 103.7%
Height as % of Control ([4]; listed as Rhizopus oryzae Esterase): increase the growth rate of corn

B5: PpII Lipase: free lipase from porcine pancreas Type II (PpII) (protein, UniProt P00591 1-450, looked up)
Pancreatic triacylglycerol …: SEVCFPRLGCFSDDAPWAGIVQRPLKILPWSPKDVDTRFLLYTNQNQNNYQELVADPSTITNSNFRMDRKTRFIIHGFIDKGEEDWLSNICKNLFKVESVNCICVDWKGGSRTGYTQASQNIRIVGAEVAYFVEVLKSSLGYSPSNVHVIGHSLGSHAAGEAGRRTNGTIERITGLDPAEPCFQGTPELVRLDPSDAKFVDVIHTDAAPIIPNLGFGMSQTVGHLDFFPNGGKQMPGCQKNILSQIVDIDGIWEGTRDFVACNHLRSYKYYADSILNPDGFAGFPCDSYNVFTANKCFPCPSEGCPQMGHYADRFPGKTNGVSQVFYLNTGDASNFARWRYKVSVTLSGKKVTGHILVSLFGNEGNSRQYEIYKGTLQPDNTHSDEFDSDVEVGDLQKVKFIWYNNNVINPTLPRVGASKITVERNDGKVYDFCSQETVREEVLLTLNPC
Dead Larva ([5]; Table 46, lipases): 0
Larva Stage I ([5]; Table 46): 2
Larva Stage II ([5]; Table 46): 5
Larva Stage III ([5]; Table 46): 15
Larva Stage IV ([5]; Table 46): 10
Diet consumption ([6]; lipases, garden snail, n = 12, 12 days, dose per treatment in U/gr diet): 0.82 gr
Dead Snails ([6]; lipases, garden snail, number of n = 12, 12 days): 0
food consumption (in words) ([6]; text to Table 62, lipases in artificial diet, n = 12, 12 days): consistent reduction in food consumption
